# ± gives the standard deviation.
# Assay: protein stability index of a GFP-peptide fusion (GPS, HEK-293T) (PSI 1-6); higher = more stable
# [1] = treatment: DMSO, c terminus: a fixed tail appended
# [2] = treatment: MLN4924 1 uM, 8 h, c terminus: a fixed tail appended
# [3] = treatment: DMSO, c terminus: native
# [4] = treatment: MLN4924 1 uM, 8 h, c terminus: native
# 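Also: 24-mer peptide tiles fused after GFP, lentivirally expressed, FACS-sorted into six equal bins by GFP/DsRed ratio, decoded by Illumina sequencing, PSI is the read-weighted mean bin number.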
Sequence,protein stability index [1],protein stability index [2],protein stability index [3],protein stability index [4]
AVLFTGIVALYIASGLTGFIGLEV [ATL3],3.49 ± 0.43,3.52 ± 0.35,,
DRQYDSRGRFGELLLLLPTLQSIT [HNF4A],2.35 ± 0.47,2.17 ± 0.21,,
LYAVGGHDGSSYLNSVERYDPKTN [KLHL20],3.72 ± 0.22,3.79 ± 0.23,,
LIQFLEQVHQGIKGMVLDENYNNL [CPN1],2.62 ± 0.065,3.07 ± 0.61,,
LCALPVHVAVEHQLPPASRCVLVF [SOAT2],2.71 ± 0.6,2.71 ± 0.61,,
LLAYLIRNGSERVVTSAREHIYDL [CLINT1],2.85 ± 0.33,2.41 ± 0.28,,
RDFRPTDQEEIKTLERYMCSRFFI [TENT5C],2.63 ± 0.39,2.71 ± 0.17,,
TEHMKTHTGLKPYECGVCAKKFMW [ZBTB22],2.65 ± 0.26,2.77 ± 0.34,,
EEDRPLGGGEGHQPAGNRRGQARR [BEX3],5.72 ± 0.14,5.563 ± 0.048,,
PRLHIVKADENNGFGSKNTAFCTH [TBX5],3.43 ± 0.12,3.28 ± 0.049,,
CSSCQRSWASAQVQILCHTYWEHW [RTP4],2.3 ± 0.52,2.36 ± 0.28,,
INVPIRLECVKFASHCLMNHPDLA [PDS5B],2.28 ± 0.46,2.27 ± 0.17,,
GEDEENREHRVRRIHVRRHITHDE [KCTD13],5.23 ± 0.2,5.1 ± 0.29,,
RILVGNRLHLAFKRQVPTEQARAY [RAB40C],2.29 ± 0.26,2.56 ± 0.27,,
EWNEKVTQSDLYKKTQETLSQAGQ [TPD52L2],4.39 ± 0.35,4.4 ± 0.17,,
VNPWKREVKLLLSSETPIEGKNMS [APMAP],3.44 ± 0.25,3.62 ± 0.42,,
DLAWMITFYVRFFLTYVPLLGLKA [FADS1],3.03 ± 0.11,3.62 ± 0.23,,
STNGELNVDDPTGAHSNAPITAHA [CSNK1G1],5.39 ± 0.15,5.29 ± 0.33,,
RPRPQGRSVSEPRDQHPQPSLGDS [RTN2],5.04 ± 0.31,5.296 ± 0.046,,
LHPDRDPGNPSLHSRFVELSEAYR [DNAJC4],3.37 ± 0.22,3.51 ± 0.19,,
SLERGTALFAQVQRGALPAPDPEL [RSAD1],4.18 ± 0.45,4.41 ± 0.38,,
FAYKDEYEKFKLYLTIILILISFT [TMEM120A],2.83 ± 0.35,2.46 ± 0.52,,
HQLGFIHRDIKPDNLLLDAKGHVK [STK38L],3.71 ± 0.31,4.12 ± 0.26,,

Sequence,protein stability index [1],protein stability index [2],protein stability index [3],protein stability index [4]
LLTLRNSAQAPPDSISLHQPCNPP [DMRTC1],3.62 ± 0.14,3.82 ± 0.15,,
AFYKEQLARLEERSSEFYRVTTEQ [CHCHD3],3.29 ± 0.12,3.38 ± 0.34,,
VPSESEPPALQNNLLSPLLTGTES [NFE2L1],4.92 ± 0.1,5.07 ± 0.18,,
HLSRLCVRHNLGDTRLGQVSALPL [SPSB2],2.38 ± 0.14,2.54 ± 0.33,,
PQSLPSTPKAAWIREEGRCSSSDD [PBXIP1],5.25 ± 0.2,5.27 ± 0.14,,
QEVFEPPHYELCTLRGTGATADFA [NETO1],3.91 ± 0.28,3.88 ± 0.26,,
GYPTYKEKVKKRPGGRPEVIYNYV [BTBD10],2.41 ± 0.16,2.85 ± 0.33,,
DQIEDMFEQGKWDVFSENLLADVK [STX11],3.75 ± 0.14,3.76 ± 0.3,,
IVGNQVQGAPASSFVYVNPEDGRI [PCDHGC5],3.46 ± 0.073,3.48 ± 0.21,,
MELKVGDFGLAARLEPLEHRRRTI [PLK2],3.23 ± 0.16,3.43 ± 0.25,,
PGAEEAQDPEGKGEQEHSQQKEEE [CHGA],5.65 ± 0.15,5.58 ± 0.43,,
AGADLEHESEGGRTPLMKAARAGH [ANKRD17],5.07 ± 0.29,4.95 ± 0.26,,
ISPSTLKNSLFPSPISSISPGLHS [KCNK9],2.71 ± 0.56,2.76 ± 0.56,,
TSLFLGNGVLLCFYSQEWYARQHC [SOAT1],2.9 ± 0.8,2.91 ± 0.32,,
FPETTFISVTAYQNPQITQLKIAA [TBX6],2.58 ± 0.72,2.73 ± 0.59,,
SDFLTLHSIIISLVEAGAHTDMTN [FEM1B],2.87 ± 0.43,2.93 ± 0.54,,
LGVRRPGGAGKEGVRVNNRFELIN [TCF25],3.05 ± 0.39,3.12 ± 0.43,,
RWTFEKACHPFLLGPPLVRKRIHD [TOR1AIP2],2.64 ± 0.18,2.76 ± 0.33,,
GLPSSELDAVENQLKWASWELHSL [ZNF24],2.98 ± 0.15,3 ± 0.38,,
RGQARRLAPNFRWAIPNRQINDGM [BEX3],3.1 ± 0.24,3.03 ± 0.47,,
MLRTGLGVIRMWADEGSRNSRFQM [NETO1],2.5 ± 0.11,2.39 ± 0.4,,
GTPTSHVYMFKNGSGDSGDSSEEE [LYSMD4],5.37 ± 0.4,5.39 ± 0.28,,
IVALYIASGLTGFIGLEVVAQLFN [ATL3],3.24 ± 0.094,3.31 ± 0.33,,

Sequence,protein stability index [1],protein stability index [2],protein stability index [3],protein stability index [4]
LSQRTITVGVYEAAKLLNVDPDNV [GADD45A],3.16 ± 0.29,3.14 ± 0.19,,
CCAAPGPHVALAVRYNRVGILRRI [ANKRD9],2.37 ± 0.26,2.49 ± 0.2,,
NHCMLSPSSSGHLADSDTLSSAEE [C18orf25],5.36 ± 0.19,5.4 ± 0.098,,
VQKNILAAASPYIRTKLNYNPPKD [GAN],2.97 ± 0.34,3.24 ± 0.38,,
KATASEAVDCKWYIRAPPRSKIYL [NETO1],2.23 ± 0.54,2.25 ± 0.32,,
RPNRQLGSMVEIAKQLQAVKRKIR [TRIM39],2.85 ± 0.43,3.03 ± 0.27,,
FGAVVRWAEAECQRQQLPVTFGNK [BTBD1],2.57 ± 0.3,2.84 ± 0.18,,
KILVGNRLHLAFKRQVPREQAQAY [RAB40A],2.48 ± 0.11,2.56 ± 0.19,,
SEAPNEKLFFVDTGSKEKGLTKKR [NOP53],4.98 ± 0.44,5.37 ± 0.15,,
SYKDLDVIFGVELPGNEEFQVVKD [TENT5D],3.84 ± 0.24,3.88 ± 0.099,,
VQKEHEEYMKNLLKVGGILVMPLE [PCMTD2],2.69 ± 0.21,2.7 ± 0.17,,
GLLSKTAGFSPDCIMDDAINILQN [INTS4],2.91 ± 0.33,2.89 ± 0.17,,
MVEDDSRKEMTAACTPRRRIINLT [MLH1],3.95 ± 0.059,3.93 ± 0.29,,
NPFQDPAVIQHRPSRQYATLDVYN [SCAMP3],3.6 ± 0.28,3.62 ± 0.19,,
SFGLRFGKREAAPGNHGRSAGRG [KISS1],,,3.23 ± 0.21,2.64 ± 0.45
NDMSPSNNVVPIHVPPTTENKPKV [RAB11A],5.42 ± 0.12,5.33 ± 0.19,,
GIQQLLQAEKRAAEKVSEARKRKN [ATP6V1G1],4.12 ± 0.62,3.84 ± 0.74,,
QRELHSHVTNAMVLVNVLQAIYVI [DHCR7],2.61 ± 0.59,2.78 ± 0.61,,
IPEKDMDERRRLLEQKTQESQKKK [ZNF207],5.51 ± 0.27,5.59 ± 0.11,,
LEQDLQQVMVSGPNLNETSIVSGG [ARFIP2],5.03 ± 0.26,4.99 ± 0.12,,
SDLFDLMGSSQATMTSSQSMNFSM [CLINT1],2.42 ± 0.22,2.66 ± 0.24,,
SHQELHRELLMNHRRGLGVDSKPE [FAM107A],4.61 ± 0.22,4.57 ± 0.2,,
KASWSSLSMDEKVELYRIKFKESF [COX4I1],2.55 ± 0.56,2.85 ± 0.44,,

Sequence,protein stability index [1],protein stability index [2],protein stability index [3],protein stability index [4]
HYKKAPIFTSEHGEKLYLVRALQ [NCK2],,,2.42 ± 0.61,2.2 ± 0.34
QCSNRIGSMKIKSSWDIDGRATKR [FBXO34],3.28 ± 0.2,3.52 ± 0.28,,
NELQHDLDVVSDALAKVSRKPSI [TPH1],,,5.17 ± 0.39,5.33 ± 0.11
LSRAYDGTTYLPGIVGLNNIKAND [USP39],3.45 ± 0.24,3.54 ± 0.32,,
AALLGSNSESWGWDIGRGKLYHQS [SPSB2],2.6 ± 0.63,3.06 ± 0.13,,
PSVYHAMPSPCSCMSFNPETRRLS [WDFY2],2.57 ± 0.36,2.88 ± 0.41,,
MEKMLAGCFLLILGQIVLLPAEAR [MATN2],3.46 ± 0.56,3.01 ± 0.3,,
ELSNFKSQKVLGLNEDPLKWWSDR [ZBED1],2.73 ± 0.17,2.97 ± 0.26,,
KATMQNLNDRLASYLDKVRALEEA [KRT17],3.14 ± 0.19,3.43 ± 0.3,,
WGKRKNKPKMNYEKLSRGLRYYYD [ETS2],2.52 ± 0.26,2.51 ± 0.43,,
QYLRLPDAPEQRLRVMTTNIRSAR [ELOA2],3.58 ± 0.31,3.9 ± 0.16,,
EEEEEATNTHPPASLPSQKYPGPQ [CHGA],5.61 ± 0.16,5.54 ± 0.17,,
SGESGLRRRGSDPASGEVEASQLR [TMEM40],5.56 ± 0.11,5.51 ± 0.22,,
TSPSSNNSSEELSSALHLSKGMSI [NECAB1],4.26 ± 0.19,4.24 ± 0.16,,
ENLEGVPSVCSENIHPQVLLPDQA [ZNF263],5 ± 0.39,4.96 ± 0.11,,
GQTSGAREPPQAVSIKEAAGSSNL [VENTX],5.26 ± 0.26,5.15 ± 0.25,,
PTCPVCKDRASPADLRTNHTLNNL [TRIM35],3.62 ± 0.21,3.9 ± 0.46,,
RARIAKGLRLCRPKAKAKAKAKAK [RPL29],4.16 ± 0.48,4 ± 0.38,,
LDEPNAESDYTYSSSYEQFNGELP [SRPK2],4.78 ± 0.28,4.62 ± 0.19,,
AQSEAEKKLKKDDKKKELQELNEL [ZC3H15],5.56 ± 0.23,5.53 ± 0.21,,
